From patent publication US11485987B2, “Methods for inducing bioorthogonal reactivity” (University of Delaware, priority 2015, dated 2022)

Tests used:
Type in all cases: biochemical
[1] = substrate: CCCCNC(=O)C1=NNC(c2ccccn2)=NN1; experiment: Oxidation of DHT by APEX2, UV-Vis initial rates and kinetic parameters; details: pH 7.4, 25.0 °C
Protocol: (§1) UV-Vis and fluorescence measurements were conducted in quartz cuvettes. All reactions were conducted in phosphate buffered saline (PBS) containing 100 μM EDTA with a pH=7.4. The PBS was prepared by adding 25 mM phosphate salts (Na2HPO4 and NaH2PO4), 100 mM NaCl, 100 μM EDTA to DI water. EDTA was added to quench free metals that can oxidize DHT. The buffer was pH adjusted to 7.4 using 1 mM HCl and 1 mM NaOH. UV experiments were stirred at 25° C. in a temperature-controlled cuvette holder of the spectrophotometer. Solutions of 15 or 16 were prepared from methanol stock solutions.
(§2) 15 or 16 (60 μM) from methanol stock solutions was added to PBS containing 100 μM EDTA. After 10s, APEX2 (SEQ ID NO:1) (275 nM) was dosed in and oxidation was monitored at 325 nm for 15 and 285 nm for 16 at 60s intervals (FIG. 10B-C).
(§3) 16 (15 μM) DHT from methanol stock solutions was added to PBS containing 100 μM EDTA. After 10s, APEX2 (SEQ ID NO:1) (275 nM) or HRP (15 nM) was dosed in and oxidation was monitored at 285 nm at 10s intervals (FIG. 10D)
(§4) SOD (1 μM) was added to PBS containing 100 μM EDTA. 15 or 16 (60 μM) was added from methanol stock solutions. After 10s, APEX2 (SEQ ID NO:1) or F41A APEX2 (275 nM) was dosed in and oxidation was monitored at 325 nm for 15 and 285 nm for 16 at 60s intervals.
(§5) The initial rate of oxidation was calculated from the first 100 seconds after APEX2 (SEQ ID NO:1) or F41A APEX2 was added ([…]). In the assays where SOD was added, SOD (1 μM) was added to PBS containing 100 μM EDTA and 15 or 16 was dosed in. 10 seconds later, APEX2 (SEQ ID NO:1) or F41A APEX2 ([…]) was added and the rate of oxidation was calculated from the first 100 seconds after APEX2 (SEQ ID NO:1) or F41A APEX2 ([…]) addition. The initial rate of oxidation was adjusted to background oxidation of DHT in PBS with 100 μM EDTA. Kinetic parameters (Table 2) were determined using GraphPad's Prism 6 software from the data presented below (Table 3-4).

[2] = substrate: O=C(O)CCCC(=O)Nc1ccc(C2=NNC(c3ccccn3)=NN2)nc1; experiment: as above; details: pH 7.4, 25.0 °C
Protocol: as §1, §2, §3, §4, §5

[3] = substrate: CCCCNC(=O)C1=NNC(c2ccccn2)=NN1; experiment: Oxidation of DHT by F41A APEX2, UV-Vis initial rates and kinetic parameters; details: other: F41A APEX2 + SOD; pH 7.4; 25.0 °C
Protocol: as §1, §4, §5

[4] = substrate: O=C(O)CCCC(=O)Nc1ccc(C2=NNC(c3ccccn3)=NN2)nc1; experiment: as above; details: other: F41A APEX2 + SOD; pH 7.4; 25.0 °C
Protocol: as §1, §4, §5

[5] = substrate: O=C(O)CCC(=O)Nc1ccc(C2=NNC(c3ccccn3)=NN2)nc1; experiment: Horseradish peroxidase (HRP) catalyzed oxidation of DHTz to tetrazine; details: other: HRP, peroxide-free, PBS containing EDTA (2.0 mM); pH 7.4; 25.0 °C
Protocol: Upon addition of horseradish peroxidase (15 nM) the UV-vis spectrum was monitored every 10 seconds. With 50% conversion after 100 seconds, complete conversion of 3a to 4a is observed after 600 seconds, as evidenced by the decrease in the absorption at 292 nm and increase at 325 nm with an isosbestic point at 303 nm. Similar spectral changes are observed when 3a is electrochemically oxidized to 4a in aqueous solution, or when the oxidation of 3a to 4a is photocatalyzed by methylene blue. […] Methylene blue was considered a particularly attractive sensitizer due to its clinical relevance, low molecular weight, low toxicity, high solubility, and an absorption spectrum (λmax 665 nm) that extends to the near IR. Further, methylene blue has previously been explored for applications in photodynamic therapy based on oxidation of indole-3-acetic acid. Rose bengal (λmax 550 nm), used in a range of biomedical applications, was also identified as an excellent sensitizer. […] Methylene blue (4 μM) also catalyzed the conversion of 3a to 4a in the presence of ambient light, with 47% conversion noted after 2 h. […] The mechanism of photooxidation more likely involves electron transfer and is the subject of ongoing study.
As a complement to these photocatalyzed reactions, the inventors observed that HRP can efficiently catalyze the oxidation of 3a in the dark at low enzyme concentration (15 nM) (FIG. 4). While HRP typically requires H2O2 as the terminal oxidant, the addition of HRP to a peroxide-free solution of 3a (30 μM) in PBS led to the rapid formation of 4a (FIG. 4, panel B). […]
Solutions (1 mL) containing 3a (30 μm) in PBS buffer were prepared in a cuvette from stock solutions. Oxidation of 3a to 4a was monitored by recording absorbance at 325 nm every 10 seconds while either hydrogen peroxide (2 mM), HRP (15 nM) or both were added (FIG. 4, panel B). […] The oxidation rate was determined by observing the conversion of 3a to 4a in the first 10 seconds after mixing in HRP (15 nM) and subtracting the background oxidation prior to the addition of HRP.

[6] = other: APEX2 (SEQ ID NO: 1) + SOD
[7] = other: APEX2 (SEQ ID NO: 1), no SOD

B1: APEX2 (SEQ ID NO:1) (Glycine max; A134P/E112K/K14D/W41F) (protein)
chain: MGKSYPTVSADYQDAVEKAKKKLRGFIAEKRCAPLMLRLAFHSAGTFDKGTKTGGPFGTIKHPAELAHSANNGLDIAVRLLEPLKAEFPILSYADFYQLAGVVAVEVTGGPKVPFHPGREDKPEPPPEGRLPDPTKGSDHLRDVFGKAMGLTDQDIVALSGGHTIGAAHKERSGFEGPWTSNPLIFDNSYFTELLSGEKEGLLQLPSDKALLSDPVFRPLVDKYAADEDAFFADYAEAHQKLSELGFADA
Km [1, 6]: 17.29 µM | kcat [1, 6]: 0.115 s⁻¹ | kcat/Km [1, 6]: 6662 M⁻¹ s⁻¹ | Km [1, 7]: 22.61 µM | kcat [1, 7]: 0.077 s⁻¹ | kcat/Km [1, 7]: 3426 M⁻¹ s⁻¹ | Km [2, 6]: 41.41 µM | kcat [2, 6]: 0.247 s⁻¹ | kcat/Km [2, 6]: 5956 M⁻¹ s⁻¹ | Km [2, 7]: 47.56 µM | kcat [2, 7]: 0.197 s⁻¹ | kcat/Km [2, 7]: 4134 M⁻¹ s⁻¹

B2: F41A APEX2 (Glycine max; A134P/E112K/K14D/W41A) (protein)
chain: MGKSYPTVSADYQDAVEKAKKKLRGFIAEKRCAPLMLRLAAHSAGTFDKGTKTGGPFGTIKHPAELAHSANNGLDIAVRLLEPLKAEFPILSYADFYQLAGVVAVEVTGGPKVPFHPGREDKPEPPPEGRLPDPTKGSDHLRDVFGKAMGLTDQDIVALSGGHTIGAAHKERSGFEGPWTSNPLIFDNSYFTELLSGEKEGLLQLPSDKALLSDPVFRPLVDKYAADEDAFFADYAEAHQKLSELGFADA
Km [3]: 104.6 µM | kcat [3]: 0.408 s⁻¹ | kcat/Km [3]: 3900 M⁻¹ s⁻¹ | Km [4]: 263 µM | kcat [4]: 1.72 s⁻¹ | kcat/Km [4]: 6533 M⁻¹ s⁻¹

B3: horseradish peroxidase (HRP) (Armoracia rusticana) (protein)
chain: QLTPTFYDNSCPNVSNIVRDTIVNELRSDPRIAASILRLHFHDCFVNGCDASILLDNTTSFRTEKDAFGNANSARGFPVIDRMKAAVESACPRTVSCADLLTIAAQQSVTLAGGPSWRVPLGRRDSLQAFLDLANANLPAPFFTLPQLKDSFRNVGLNRSSDLVALSGGHTFGKNQCRFIMDRLYNFSNTGLPDPTLNTTYLQTLRGLCPLNGNLSALVDFDLRTPTIFDNKYYVNLEEQKGLIQSDQELFSSPNATDTIPLVRSFANSTQTFFNAFVEAMDRMGNITPLTGTQGQIRLNCRVVNSNS
Km [5]: 100 µM | kcat [5]: 27 s⁻¹ | kcat/Km [5]: 270000 M⁻¹ s⁻¹
